± gives the uncertainty stated by the source.
Test: self-splicing fitness, log relative to wild type (ln ratio); higher = more splicing; Tetrahymena group I intron in knt gene, E. coli kanamycin selection, DiMSum; sequences stand for … in CUCUCU…GGAGGGAAAAGUUAUCAGGCAUGCACCUGGUAGCUAGUCUUUAAACCAAUAGAUUGCAUCGGUUUAAAAGGCAAGACCGUCAAAUUGCGGGAAAGGGGUCAACAGCCGUUCAGUACCAAGUCUCAGGGGAAACUUUGAGAUGGCCUUGCAAAGGGUAUGGUAAUAAGCUGACGGACAUGGUCCUAACCACGCAGCCAAGUCCUAAGUCAACAGAUCUUCUGUUGAUAUGGAUGCAGUUCACAGACUAAAUGUCGGUCGGGGAAGAUGUAUUCUUCUCAUAAGAUAUAGUCGGACCUCUCCUUAAUGGGAGCUAGCGGAUGAAGUGAUGCAACACUGGAGCCGCUGGGAACUAAUUUGUAUGCGAAAGUAUAUUGAUUAGUUUUGGAGUACUCGUGGUCG
Method in brief: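 A randomised library covering all eight P1ex-region intron nucleotides was built with the intron in the knt kanamycin-resistance gene on pET-22b(+) and held in E. coli BL21(DE3). Cells were grown overnight at 37°C or 30°C on LB agar, with or without 25 μg/mL kanamycin, plus 100 μg/mL carbenicillin, 50 μM IPTG and 0.2% rhamnose, and pooled colonies were amplicon-sequenced on an Illumina HiSeq 2500. DiMSum fitness is the error-weighted combination of wild-type-normalised replicate fold changes, kanamycin versus none.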

| Sequence | self-splicing fitness (ln) (30 °C) | self-splicing fitness (ln) (37 °C) |
| --- | --- | --- |
| UCACAGCAAUAUUACGGAGG | -3.27 ± 0.15 | -2.29 ± 0.19 |
| UCACAGCAAUAUUACGGCCU | -3.61 ± 0.25 | -1.99 ± 0.15 |
| UCACAGCAAUAUUACGGGCC | -3.95 ± 0.34 | -2.76 ± 0.33 |
| UCACAGCAAUAUUACGGGCU | -4 ± 0.18 | -3.47 ± 0.16 |
| UCACAGCAAUAUUACGGUAG | -1.18 ± 0.085 | -0.311 ± 0.1 |
| UCACAGCAAUAUUACGUACA | -1.53 ± 0.076 | -0.549 ± 0.075 |
| UCACAGCAAUAUUACGUCAG | -1.59 ± 0.077 | -0.829 ± 0.1 |
| UCACAGCAAUAUUACGUUAA | -2.66 ± 0.12 | -1.83 ± 0.11 |
| UCACAGCAAUAUUACGUUUG | -2.21 ± 0.08 | -1.2 ± 0.11 |
| UCAGAGCAAUAUUACGAAAU | -3.56 ± 0.32 | -2.11 ± 0.46 |
| UCAGAGCAAUAUUACGAAGA |  | -2.32 ± 0.42 |
| UCAGAGCAAUAUUACGAAUC | -2.45 ± 0.42 |  |
| UCAGAGCAAUAUUACGAGAU | -3.74 ± 0.33 | -2.09 ± 0.37 |
| UCAGAGCAAUAUUACGAGCU | -2.68 ± 0.38 | -1.58 ± 0.29 |
| UCAGAGCAAUAUUACGAUUC |  | -1.19 ± 0.41 |
| UCAGAGCAAUAUUACGCACG | -3.39 ± 0.29 | -1.37 ± 0.21 |
| UCAGAGCAAUAUUACGCCAA | -2.84 ± 0.25 | -1.74 ± 0.29 |
| UCAGAGCAAUAUUACGCCUA | -2.28 ± 0.25 | -1.61 ± 0.26 |
| UCAGAGCAAUAUUACGCGAC | -3.71 ± 0.42 |  |
| UCAGAGCAAUAUUACGCGAG | -2.24 ± 0.12 | -1.06 ± 0.13 |

| Sequence | self-splicing fitness (ln) (30 °C) | self-splicing fitness (ln) (37 °C) |
| --- | --- | --- |
| UCAGAGCAAUAUUACGCGGC |  | -3.08 ± 0.4 |
| UCAGAGCAAUAUUACGGCAU | -3.07 ± 0.33 | -1.87 ± 0.29 |
| UCAGAGCAAUAUUACGGCGG | -1.41 ± 0.13 | 0.0537 ± 0.13 |
| UCAGAGCAAUAUUACGGCUC | -4.58 ± 0.34 | -3.36 ± 0.25 |
| UCAGAGCAAUAUUACGGCUG | -2.49 ± 0.19 | -0.448 ± 0.2 |
| UCAGAGCAAUAUUACGGUAG | -3.45 ± 0.24 | -2.39 ± 0.27 |
| UCAGAGCAAUAUUACGGUCA | -1.72 ± 0.18 | -2.42 ± 0.32 |
| UCAGAGCAAUAUUACGUAAA | -2.65 ± 0.15 | -1.95 ± 0.25 |
| UCAGAGCAAUAUUACGUCGC | -3.79 ± 0.37 | -2.41 ± 0.35 |
| UCAGAGCAAUAUUACGUGAG | -0.959 ± 0.054 | -0.838 ± 0.081 |
| UCAGAGCAAUAUUACGUUAC | -3.21 ± 0.37 | -1.55 ± 0.29 |
| UCAGAGCAAUAUUACGUUUA | -3.02 ± 0.25 | -2.6 ± 0.23 |
| UCAGAGCAAUAUUACGUUUG | -4.06 ± 0.24 | -2.36 ± 0.26 |
| UCAUAGCAAUAUUACGAAAC | -2.6 ± 0.25 |  |
| UCAUAGCAAUAUUACGACCU | -2.73 ± 0.39 | -0.81 ± 0.26 |
| UCAUAGCAAUAUUACGAGGC | -2.86 ± 0.35 | -1.44 ± 0.2 |
| UCAUAGCAAUAUUACGAGUG | -1.8 ± 0.11 | -0.999 ± 0.11 |
| UCAUAGCAAUAUUACGAUAA | -1.71 ± 0.21 | -0.636 ± 0.19 |
| UCAUAGCAAUAUUACGCCUG | -0.427 ± 0.085 | -0.133 ± 0.11 |
| UCAUAGCAAUAUUACGCGGA | -2.71 ± 0.18 | -0.822 ± 0.11 |

— the supplement of paper PMC7877785
